The term stoichiometry N denotes a count of units in the complex or per binding partner.

This data set deals with the molecule itself. Kind of data set: rotary shadowing electron microscopy.

B1: chicken hexabrachion protein (myotendinous (M1) antigen) (natural protein, UniProt P10039 34-1808, looked up)
chain: ETGLNVTLPEDNQPVVFNHVYNIKLPVGSLCSVDLDTASGDADLKAEIEPVKNYEEHTVNEGNQIVFTHRINIPRRACGCAAAPDIKDLLSRLEELEGLVSSLREQCASGAGCCPNSQTAEGRLDTAPYCSGHGNYSTEICGCVCEPGWKGPNCSEPACPRNCLNRGLCVRGKCICEEGFTGEDCSQAACPSDCNDQGKCVDGVCVCFEGYTGPDCGEELCPHGCGIHGRCVGGRCVCHEGFTGEDCNEPLCPNNCHNRGRCVDNECVCDEGYTGEDCGELICPNDCFDRGRCINGTCFCEEGYTGEDCGELTCPNNCNGNGRCENGLCVCHEGFVGDDCSQKRCPKDCNNRGHCVDGRCVCHEGYLGEDCGELRCPNDCHNRGRCINGQCVCDEGFIGEDCGELRCPNDCHNRGRCVNGQCECHEGFIGEDCGELRCPNDCNSHGRCVNGQCVCDEGYTGEDCGELRCPNDCHNRGRCVEGRCVCDNGFMGEDCGELSCPNDCHQHGRCVDGRCVCHEGFTGEDCRERSCPNDCNNVGRCVEGRCVCEEGYMGIDCSDVSPPTELTVTNVTDKTVNLEWKHENLVNEYLVTYVPTSSGGLDLQFTVPGNQTSATIHELEPGVEYFIRVFAILKNKKSIPVSARVATYLPAPEGLKFKSVRETSVQVEWDPLSISFDGWELVFRNMQKKDDNGDITSSLKRPETSYMQPGLAPGQQYNVSLHIVKNNTRGPGLSRVITTKLDAPSQIEAKDVTDTTALITWSKPLAEIEGIELTYGPKDVPGDRTTIDLSEDENQYSIGNLRPHTEYEVTLISRRGDMESDPAKEVFVTDLDAPRNLKRVSQTDNSITLEWKNSHANIDNYRIKFAPISGGDHTELTVPKGNQATTRATLTGLRPGTEYGIGVTAVRQDRESAPATINAGTDLDNPKDLEVSDPTETTLSLRWRRPVAKFDRYRLTYVSPSGKKNEMEIPVDSTSFILRGLDAGTEYTISLVAEKGRHKSKPTTIKGSTEEEPELGNLSVSETGWDGFQLTWTAADGAYENFVIQVQQSDNPEETWNITVPGGQHSVNVTGLKANTPYNVTLYGVIRGYRTKPLYVETTTGAHPEVGELTVSDITPESFNLSWTTTNGDFDAFTIEIIDSNRLLEPMEFNISGNSRTAHISGLSPSTDFIVYLYGISHGFRTQAISAAATTEAEPEVDNLLVSDATPDGFRLSWTADDGVFDSFVLKIRDTKRKSDPLELIVPGHERTHDITGLKEGTEYEIELYGVSSGRRSQPINSVATTVVGSPKGISFSDITENSATVSWTPPRSRVDSYRVSYVPITGGTPNVVTVDGSKTRTKLVKLVPGVDYNVNIISVKGFEESEPISGILKTALDSPSGLVVMNITDSEALATWQPAIAAVDNYIVSYSSEDEPEVTQMVSGNTVEYDLNGLRPATEYTLRVHAVKDAQKSETLSTQFTTGLDAPKDLSATEVQSETAVITWRPPRAPVTDYLLTYESIDGRVKEVILDPETTSYTLTELSPSTQYTVKLQALSRSMRSKMIQTVFTTTGLLYPYPKDCSQALLNGEVTSGLYTIYLNGDRTQPLQVFCDMAEDGGGWIVFLRRQNGKEDFYRNWKNYVAGFGDPKDEFWIGLENLHKISSQGQYELRVDLRDRGETAYAVYDKFSVGDAKTRYRLRVDGYSGTAGDSMTYHNGRSFSTFDKDNDSAITNCALSYKGAFWYKNCHRVNLMGRYGDNNHSQGVNWFHWKGHEYSIQFAEMKLRPSSFRNLEGRRKRA
For the protein B1, the “stoichiometry N” value was 6.

These data come from paper PMC2114792 (The Journal of Cell Biology, 1987).
